Experimental data from PMC12000397, “Mechanism of client loading from BiP to Grp94 and its disruption by select inhibitors” (Nature Communications, 2025).
Where “and” joins values, the source holds several entries; their conditions need not be identical. Equal values may be shown once. Ends that are not written are not given here.

B1: proIGF2_(92-120) fragment (Ext. Site 1), FITC-labeled (domain or fragment, UniProt P01344 92-120, looked up)
chain: RDVC(FITC maleimide)TPPTVLPDNFPRYPVGKFFQYDTWK
notes: proIGF2 residues 92-120, cysteine mutation at Ser95; also called extended site 1; source: purified from inclusion bodies (8 M urea; ion exchange and/or Ni-NTA, denaturing)
B2: M86C Grp94 (natural protein, mouse, UniProt P08113 72-765, looked up)
chain: KSEKFAFQAEVNRMCKLIINSLYKNKEIFLRELISNASDALDKIRLISLTDENALAGNEELTVKIKCDKEKNLLHVTDTGVGMTREELVKNLGTIAKSGTSEFLNKMTEAQEDGQSTSELIGQFGVGFYSAFLVADKVIVTSKHNNDTQHIWESDSNEFSVIADPRGNTLGRGTTITLVLKEEASDYLELDTIKNLVRKYSQFINFPIYVWSSKTTVWDWELMNDIKPIWQRPSKEVEEDEYKAFYKSFSKESDDPMAYIHFTAEGEVTFKSILFVPTSAPRGLFDEYGSKKSDYIKLYVRRVFITDDFHDMMPKYLNFVKGVVDSDDLPLNVSRETLQQHKLLKVIRKKLVRKTLDMIKKIADEKYNDTFWKEFGTNIKLGVIEDHSNRTRLAKLLRFQSSHHSTDITSLDQYVERMKEKQDKIYFMAGSSRKEAESSPFVERLLKKGYEVIYLTEPVDEYCIQALPEFDGKRFQNVAKEGVKFDESEKTKESREATEKEFEPLLNWMKDKALKDKIEKAVVSQRLTESPCALVASQYGWSGNMERIMKAQAYQTGKDISTNYYASQKKTFEINPRHPLIRDMLRRIKEDEDDKTVMDLAVVLFETATLRSGYLLPDTKAYGDRIERMLRLSLNIDPEAQVEEEPEEEPED
notes: Grp94, mouse, residues 72-765 with the charged linker removed (Δ287-328), M86C for a designed disulfide bond; also called Grp94_(M86C); source: E. coli BL21, purified (Ni-NTA, anion exchange, SEC); not shown: His6, N-terminal, cleaved
B3: Mouse BiP (residues 27-655) (natural protein)
chain: not shown
notes: BiP, mouse, residues 27-655; also called full-length BiP; source: E. coli BL21, purified (Ni-NTA, anion exchange, SEC); not shown: His6, N-terminal, cleaved
B4: FITC-labeled proIGF2_(25-120) (domain or fragment)
chain: AYGPGETLSGGELVDTLQFVSSDRGFYFSRPSSRANRRSRGIVEECSFRSSDLALLETYSATPAKSERDVSTSQAVLPDDFPRYPVGKFFQYDTWR
modifications: FITC (maleimide) on Cys70
B5: Grp94 MD (domain or fragment)
chain: NDIKPIWQRPSKEVEEDEYKAFYKSFSKESDDPMAYIHFTAEGEVTFKSILFVPTSAPRGLFDEYGSKKSDYIKLYVRRVFITDDFHDMMPKYLNFVKGVVDSDDLPLNVSRETLQQHKLLKVIRKKLVRKTLDMIKKIADEKYNDTFWKEFGTNIKLGVIEDHSNRTRLAKLLRFQSSHHSTDITSLDQYVERMKEKQDKIYFMAGSSRKEAESSPFVERLLKKGYEVIYLTEPVDEYCIQALPEFDGKRFQNVAKE

Columns and labels:
[1] = target: B3; test: fluorescence polarisation; 50 nM FITC-labeled client construct, BiP alone or Grp94 alone titrated; ADP conditions; 60 mM HEPES pH 7.0, 50 mM KCl, 5 mM MgCl2, 5% or 0% DMSO, 1 mM DTT, 0.75 mg/mL BSA, 1 mM ADP, 30 °C; single-site fit; conditions: both partners purified
[2] = target: the molecule itself; test: cross-linking; 1 μM M86C Grp94 dimer, 50 mM KCl, 50 mM Tris pH 8, 4% DMSO, with or without 5 μM BiP NBD and 50 μM inhibitor; disulfide formed with 10 mM oxidized glutathione, 25 °C, 2 h; SDS-PAGE
[3] = target: T1, Grp94 (residues 72-765) with the charged-linker removed (Δ287-328) (mouse, UniProt P08113 72-765, Δ287-328); test: fluorescence polarisation; FITC-labeled client preincubated with BiP, Grp94 then added; BiP and Grp94 varied together (Fig. 6A, B; apparent) or 5 μM BiP and 5 μM Grp94 monomer (ΔP, Fig. 6C), with and without inhibitors; ADP conditions; 60 mM HEPES pH 7.0, 50 mM KCl, 5 mM MgCl2, 1 mM DTT, 0.75 mg/mL BSA, 1 mM ADP, 30 °C; conditions: both partners purified
T1 construct: Grp94, mouse, residues 72-765 with the charged linker removed (Δ287-328); also called wild-type Grp94; source: E. coli BL21, purified (Ni-NTA, anion exchange, SEC); not shown: His6, N-terminal, cleaved

[4] = target: T2, BiP/Grp94 (mouse, UniProt P20029 27-655; P08113 72-765, Δ287-328); test: as above; conditions: both partners purified
T2 construct: BiP, mouse, residues 27-655; Grp94, mouse, residues 72-765 with the charged linker removed (Δ287-328); also called BiP and Grp94; source: E. coli BL21, each purified (Ni-NTA, anion exchange, SEC), mixed; not shown: His6, N-terminal, cleaved; copies: + 2

[5] = target: T3, FITC-labeled BiP_(D187A) NBD (mouse, FITC on Cys27 (D27C)); test: fluorescence polarisation; 50 nM FITC-labeled BiP NBD constructs, Grp94 or Grp94 MD titrated; 25 mM Tris pH 7.5, 50 mM KCl, 1 mM ADP (hexokinase-treated), 1 mM DTT; single-site binding fit; conditions: both partners purified
T3 construct: interface II mutant; also called FITC-D187A NBD; source: E. coli BL21, purified

[6] = target: T4, FITC-labeled BiP NBD (mouse, FITC on Cys27 (D27C)); test: as above; conditions: both partners purified
T4 construct: also called FITC-NBD; D27C BiP; source: E. coli BL21, purified

T2 sequence (P20029 27-655, stated change not applied, one chain of several): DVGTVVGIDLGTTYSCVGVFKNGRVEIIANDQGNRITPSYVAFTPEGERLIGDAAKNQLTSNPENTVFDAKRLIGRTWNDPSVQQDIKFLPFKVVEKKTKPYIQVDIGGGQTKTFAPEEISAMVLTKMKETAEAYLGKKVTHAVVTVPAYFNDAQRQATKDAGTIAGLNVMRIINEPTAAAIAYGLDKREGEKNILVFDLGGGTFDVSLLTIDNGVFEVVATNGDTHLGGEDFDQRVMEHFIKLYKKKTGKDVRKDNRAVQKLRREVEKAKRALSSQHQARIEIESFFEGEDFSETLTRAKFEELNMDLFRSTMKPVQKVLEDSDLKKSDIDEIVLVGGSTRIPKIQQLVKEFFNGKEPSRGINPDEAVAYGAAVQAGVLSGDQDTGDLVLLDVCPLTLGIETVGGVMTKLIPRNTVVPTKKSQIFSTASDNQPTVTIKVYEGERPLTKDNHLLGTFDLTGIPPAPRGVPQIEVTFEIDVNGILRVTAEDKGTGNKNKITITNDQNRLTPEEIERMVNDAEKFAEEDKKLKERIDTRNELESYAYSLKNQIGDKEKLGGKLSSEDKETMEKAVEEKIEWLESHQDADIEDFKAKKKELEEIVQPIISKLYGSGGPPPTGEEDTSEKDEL

Binder: B1
Kd [1]: 1900 ± 500 nM

Binder: B2
binding result [2]: binds

Binder: B3
binding result [3]: binds

Binder: B4
Kd [1]: 1500 nM and 2500 nM
Kd [4]: 1100 ± 200 nM

Binder: B5
Kd [5]: 6.5 ± 0.7 µM
Kd [6]: 5.8 ± 1.2 µM
